Results from patent publication US20110294227A1.

Assays:
Experiment in all cases: DELFIA Xpress PlGF sandwich immunoassay; tested substance at 5000 pg/mL
[1] = molecular target: PlGF-1 (glycosylated), purified recombinant placental growth factor isoform 1 (human) (UniProt P49763)
[2] = molecular target: PlGF-2 (glycosylated), purified recombinant placental growth factor isoform 2 (human)
[3] = molecular target: PlGF-3 (non-glycosylated), purified recombinant placental growth factor isoform 3 (human) (UniProt P49763)

Sequence of PlGF-2 (glycosylated), purified recombinant placental growth factor isoform 2 (human) (chain, as listed by the source limits assumed): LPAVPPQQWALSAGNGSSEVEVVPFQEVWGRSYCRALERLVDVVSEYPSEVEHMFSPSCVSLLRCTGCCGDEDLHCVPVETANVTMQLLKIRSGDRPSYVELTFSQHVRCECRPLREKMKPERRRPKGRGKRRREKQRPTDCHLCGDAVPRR

Observed cross-reactivity (%) [1]: 33% | Observed cross-reactivity (%) [2]: 16% | Observed cross-reactivity (%) [3]: 5%
Substance: P1GF-1 antibody provided with the DELFIA Xpress kit (commercial DELFIA Xpress P1GF method, PerkinElmer)
